To fix the notation:
B1: NF2 (merlin) isoform 7, human, full length (507 aa, lacks exons 2-3 = isoform-1 residues 39-121; exon-16 C-terminus), P35240-4 (parent)
chain: MAGAIASRMSFSSLKRKQPKTFTVRIVTMDAEMEFNCEVKKQILDEKIYCPPEASVLLASYAVQAKYGDYDPSVHKRGFLAQEELLPKRVINLYQMTPEMWEERITAWYAEHRGRARDEAEMEYLKIAQDLEMYGVNYFAIRNKKGTELLLGVDALGLHIYDPENRLTPKISFPWNEIRNISYSDKEFTIKPLDKKIDVFKFNSSKLRVNKLILQLCIGNHDLFMRRRKADSLEVQQMKAQAREEKARKQMERQRLAREKQMREEAERTRDELERRLLQMKEEATMANEALMRSEETADLLAEKAQITEEEAKLLAQKAAEAEQEMQRIKATAIRTEEEKRLMEQKVLEAEVLALKMAEESERRAKEADQLKQDLQEAREAERRAKQKLLEIATKPTYPPMNPIPAPLPPDIPSFNLIGDSLSFDFKDTDMKRLSMEIEKEKVEYMEKSKHLQEQLNELKTEIEALKLKERETALDILHNENSDRGGSSKHNTIKKPQAQGRRPICI

Among the data in article PMC10244618 are enrichment values, retold here.

“And” between values parts separate entries of the source, which are not always exact repeats. Equal entries are not always repeated.

The variants in the first experiment derive from B1. The experiment is described as follows: reverse yeast two-hybrid deep mutational scan (rY2H-seq): NF2 isoform 7 mutant library as bait mated with wild-type prey strains; selection on medium lacking adenine for non-interacting pairs; NextSeq paired-end sequencing; enrichment vs …. The following applies: with KDM1A (lysine-specific histone demethylase 1A; the table's label AOF2 is a gene synonym of KDM1A), O60341; yeast diploids after mating (RBait_S3 x RPrey_S3), 30 °C, selection for reporter genes on NB agar; human ABL2 co-expressed as the kinase-dead K35M mutant …; HIGHER = WEAKER BINDING (the opposite of display enrichments): higher = stronger loss of interaction: reverse Y2H selects yeast in which bait and prey do NOT interact (growth without adenine), so a …; hits-only table; scale: rY2H score; numbering: uniprot, sequence starts at 1. Background: In a reporter assay the amount or activity of a reporter protein is the signal.
In the case of W175C, the enrichment came out at 2.59.

For P407K, the enrichment amounted to 4.15.

For P407T, the enrichment stood at 2.05.

On to H75E, for which the enrichment was 2.15.

As to H75S, the enrichment was found to be 2.92.

In the case of A290V, the enrichment turned out to be 1.65.

Regarding E309L, the enrichment worked out at 1.9.

In the case of I392E, the enrichment worked out at 3.78.

On to F426A, for which the enrichment turned out to be 3.99.

For A331K, the enrichment turned out to be 2.19.

As to K356L, the enrichment is 3.88.

Take E311L: the enrichment is 2.66.

With E323A, the enrichment was 1.84 and 3.01.

On to K191Y, for which the enrichment worked out at 1.65.

On to K318A, for which the enrichment was found to be 3.56.

Take R379E: the enrichment was 6.74.

For the variant R379C, the enrichment came out at 2.

On to E351K, for which the enrichment is 1.66 and 2.35.

As for L408K, the enrichment was determined as 1.88.

R341T: the enrichment was 2.28.

A247E: the enrichment was determined as 7.37.

For I307L, the enrichment was 2.24 and 1.83.

With A358L, the enrichment was determined as 7.18.

As to L422A, the enrichment was found to be 2.07.

With L342T, the enrichment was 2.83 and 2.72.

Regarding D299L, the enrichment is 3.02 and 4.36.

D484K: the enrichment worked out at 4.88.

Consider P410R, for which the enrichment turned out to be 1.58.

Turning to P410K, the enrichment is 9.12 and 4.16.

As for E187K, the enrichment came out at 1.65.

The experiment is the same for the next values; noted with them: with EMILIN1 (elastin microfibril interfacer 1), Q9Y6C2; yeast diploids after mating (RBait_S3 x RPrey_S3), 30 °C, selection for reporter genes on NB agar; human tyrosine kinase ABL2 co-expressed as the active kinase …; HIGHER = WEAKER BINDING (the opposite of display enrichments): higher = stronger loss of interaction: reverse Y2H selects yeast in which bait and prey do NOT interact (growth without adenine), so a …; hits-only table; scale: rY2H score; numbering: uniprot, sequence starts at 1.
Turning to W175A, the enrichment worked out at 4.36.

On to W175E, for which the enrichment turned out to be 6.77.

On to A107E, for which the enrichment stood at 6.39.

Turning to A350E, the enrichment is 5.83.

On to P407K, for which the enrichment was 2.11.

Consider P407R, for which the enrichment is 4.09.

Consider H75E, for which the enrichment stood at 6.72.

For the variant A240T, the enrichment is 1.45.

With A290L, the enrichment is 38.6.

Turning to E309A, the enrichment is 2.33.

On to K229L, for which the enrichment worked out at 1.52.

Regarding S489E, the enrichment is 7.56.

Regarding F426A, the enrichment was 1.63.

Turning to F426V, the enrichment was determined as 2.88.

In the case of K170L, the enrichment worked out at 4.44.

Turning to A331E, the enrichment is 2.11.

Take A331K: the enrichment turned out to be 4.31.

As to L314N, the enrichment worked out at 18.6.

As to N143I, the enrichment is 5.68 and 2.91.

On to E323L, for which the enrichment was 2.75.

In the case of E323A, the enrichment was determined as 1.45.

Take E323G: the enrichment came to 1.92.

As to K318A, the enrichment came to 5.52.

As to R379E, the enrichment was 3.11 and 8.92.

Turning to R471G, the enrichment was 1.53.

In the case of R341T, the enrichment came out at 3.59.

Consider A247K, for which the enrichment is 4.58.

Take P98L: the enrichment came out at 1.71.

T189I: the enrichment was 1.59.

As to I307Y, the enrichment was 2.93.

Regarding I307L, the enrichment was determined as 3.37.

A287T: the enrichment amounted to 1.8.

Consider K469A, for which the enrichment is 5.72.

As for L422A, the enrichment worked out at 1.78.

Consider L342T, for which the enrichment was found to be 4.63.

For the variant D299T, the enrichment amounted to 1.88.

Regarding D299L, the enrichment is 3.97 and 2.17.

Take D484K: the enrichment is 2.87.

Take P410K: the enrichment was determined as 1.53.

On to R263G, for which the enrichment amounted to 1.44.

R263E: the enrichment was determined as 2.7.

Turning to T269E, the enrichment was 4.01.

The same experiment, now with this note: with NF2 C-terminal domain (wild type; homomeric NF2-NF2 interaction), P35240; yeast diploids after mating (RBait_S3 x RPrey_S3), 30 °C, selection for reporter genes on NB agar; human ABL2 co-expressed as the kinase-dead K35M mutant …; HIGHER = WEAKER BINDING (the opposite of display enrichments): higher = stronger loss of interaction: reverse Y2H selects yeast in which bait and prey do NOT interact (growth without adenine), so a …; hits-only table; partner unresolved; scale: rY2H score; numbering: uniprot, sequence starts at 1.
Consider W175A, for which the enrichment worked out at 2.08.

Regarding W175E, the enrichment turned out to be 1.97.

Turning to H75E, the enrichment came out at 2.7.

In the case of H75S, the enrichment was 2.58.

For A331E, the enrichment amounted to 1.53.

Turning to E323L, the enrichment was 3.82.

Regarding E323A, the enrichment came to 1.8.

As for K191Y, the enrichment is 1.46.

As to R379E, the enrichment is 1.99.

Consider E351K, for which the enrichment was 2.95 and 2.99.

As for A247E, the enrichment was found to be 6.62.

For the variant K469A, the enrichment is 2.32 and 4.81.

As to D299L, the enrichment was 3.22.

Take R263E: the enrichment was found to be 3.74.

For the variant T269E, the enrichment was found to be 3.61.

Staying with this experiment, now noted: with PIK3R3 (phosphatidylinositol 3-kinase regulatory subunit gamma), Q92569; yeast diploids after mating (RBait_S3 x RPrey_S3), 30 °C, selection for reporter genes on NB agar; human tyrosine kinase ABL2 co-expressed as the active kinase …; HIGHER = WEAKER BINDING (the opposite of display enrichments): higher = stronger loss of interaction: reverse Y2H selects yeast in which bait and prey do NOT interact (growth without adenine), so a …; hits-only table; scale: rY2H score; numbering: uniprot, sequence starts at 1.
Take A107E: the enrichment turned out to be 6.23.

Consider P407K, for which the enrichment came out at 2.65.

With P407T, the enrichment is 2.62.

For H75E, the enrichment is 11.9 and 8.5.

Regarding A290V, the enrichment was 2.94.

With K356L, the enrichment is 7.08.

For the variant K318A, the enrichment was determined as 5.56.

As for A358L, the enrichment is 4.62.

Still in this experiment, the particulars now being: with KDM1A (lysine-specific histone demethylase 1A; the table's label AOF2 is a gene synonym of KDM1A), O60341; yeast diploids after mating (RBait_S3 x RPrey_S3), 30 °C, selection for reporter genes on NB agar; human tyrosine kinase ABL2 co-expressed as the active kinase …; HIGHER = WEAKER BINDING (the opposite of display enrichments): higher = stronger loss of interaction: reverse Y2H selects yeast in which bait and prey do NOT interact (growth without adenine), so a …; hits-only table; scale: rY2H score; numbering: uniprot, sequence starts at 1.
As to P407K, the enrichment is 2.54.

On to H75S, for which the enrichment is 3.22.

Regarding E309L, the enrichment turned out to be 1.51.

Take A331K: the enrichment amounted to 4.83.

Turning to E311L, the enrichment worked out at 5.65.

In the case of E323L, the enrichment worked out at 1.55.

With K318A, the enrichment came to 3.09.

With R379E, the enrichment amounted to 5.6.

Regarding R379C, the enrichment was 2.04.

I307L: the enrichment was found to be 4.9.

Regarding K469A, the enrichment is 3.

Consider A358L, for which the enrichment amounted to 6.77.

Consider D299L, for which the enrichment worked out at 4.23.
